From IntAct's records for PubMed 16775625

B1: Cyclin-dependent kinase 14 (Homo sapiens), O94921 (parent)
chain: MCDLIEPQPAEKIGKMKKLRRTLSESFSRIALKKDDTTFDEICVTKMSTRNCQGMDSVIKPLDTIPEDKKVRVQRTQSTFDPFEKPANQVKRVHSENNACINFKTSSTGKESPKVRRHSSPSSPTSPKFGKADSYEKLEKLGEGSYATVYKGKSKVNGKLVALKVIRLQEEEGTPFTAIREASLLKGLKHANIVLLHDIIHTKETLTLVFEYVHTDLCQYMDKHPGGLHPDNVKLFLFQLLRGLSYIHQRYILHRDLKPQNLLISDTGELKLADFGLARAKSVPSHTYSNEVVTLWYRPPDVLLGSTEYSTCLDMWGVGCIFVEMIQGVAAFPGMKDIQDQLERIFLVLGTPNEDTWPGVHSLPHFKPERFTLYSSKNLRQAWNKLSYVNHAEDLASKLLQCSPKNRLSAQAALSHEYFSDLPPRLWELTDMSSIFTVPNVRLQPEAGESMRAFGKNNSYGKSLSNSKH
partner: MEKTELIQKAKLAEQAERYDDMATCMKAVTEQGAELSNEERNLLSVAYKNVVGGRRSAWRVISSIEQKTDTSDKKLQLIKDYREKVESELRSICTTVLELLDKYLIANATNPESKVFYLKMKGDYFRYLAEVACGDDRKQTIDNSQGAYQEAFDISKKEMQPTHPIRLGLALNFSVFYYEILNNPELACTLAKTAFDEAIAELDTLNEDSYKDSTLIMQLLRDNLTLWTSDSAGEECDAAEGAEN
B2: Cyclin-dependent kinase 14 (Homo sapiens), O94921 (parent)
chain: B1 chain
B3: Cyclin-dependent kinase 14 (Homo sapiens), O94921 (parent)
chain: B1 chain
partner: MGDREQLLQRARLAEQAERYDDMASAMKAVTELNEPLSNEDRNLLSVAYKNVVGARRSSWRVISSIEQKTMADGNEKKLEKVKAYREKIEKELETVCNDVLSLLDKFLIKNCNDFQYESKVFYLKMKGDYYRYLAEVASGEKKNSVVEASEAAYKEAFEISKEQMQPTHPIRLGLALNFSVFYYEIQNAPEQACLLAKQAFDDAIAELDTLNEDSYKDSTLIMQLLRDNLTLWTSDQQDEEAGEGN

Variants of: B1
Conditions: with 1433t_human YWHAQ

Q: MCDLIEPQPAEKIGKMKKLRRTLSESFSRIALKKDDTTFDEICVTKMSTRNCQGMDSVIKPLDTIPEDKKVRVQRTQSTFDPFEKPANQVKRVHSENNACINFKTSSTGKESPKVRRHASPSSPTSPKFGKADSYEKLEKLGEGSYATVYKGKSKVNGKLVALKVIRLQEEEGTPFTAIREASLLKGLKHANIVLLHDIIHTKETLTLVFEYVHTDLCQYMDKHPGGLHPDNVKLFLFQLLRGLSYIHQRYILHRDLKPQNLLISDTGELKLADFGLARAKSVPSHTYSNEVVTLWYRPPDVLLGSTEYSTCLDMWGVGCIFVEMIQGVAAFPGMKDIQDQLERIFLVLGTPNEDTWPGVHSLPHFKPERFTLYSSKNLRQAWNKLSYVNHAEDLASKLLQCSPKNRLSAQAALSHEYFSDLPPRLWELTDMSSIFTVPNVRLQPEAGESMRAFGKNNSYGKSLSNSKH [S119A] was tested. Which “effect of a mutation on the interaction” value did it give?
A: The value was “decreasing interaction”.

Variants of: B2
Conditions: with 1433b_human YWHAB

Q: How did the “effect of a mutation on the interaction” value turn out when MCDLIEPQPAEKIGKMKKLRRTLSESFSRIALKKDDTTFDEICVTKMSTRNCQGMDSVIKPLDTIPEDKKVRVQRTQSTFDPFEKPANQVKRVHSENNACINFKTSSTGKESPKVRRHASPSSPTSPKFGKADSYEKLEKLGEGSYATVYKGKSKVNGKLVALKVIRLQEEEGTPFTAIREASLLKGLKHANIVLLHDIIHTKETLTLVFEYVHTDLCQYMDKHPGGLHPDNVKLFLFQLLRGLSYIHQRYILHRDLKPQNLLISDTGELKLADFGLARAKSVPSHTYSNEVVTLWYRPPDVLLGSTEYSTCLDMWGVGCIFVEMIQGVAAFPGMKDIQDQLERIFLVLGTPNEDTWPGVHSLPHFKPERFTLYSSKNLRQAWNKLSYVNHAEDLASKLLQCSPKNRLSAQAALSHEYFSDLPPRLWELTDMSSIFTVPNVRLQPEAGESMRAFGKNNSYGKSLSNSKH [S119A] was run?
A: Its value is “decreasing interaction”.

Variants of: B2
Conditions: with 1433e_human YWHAE

Q: For MCDLIEPQPAEKIGKMKKLRRTLSESFSRIALKKDDTTFDEICVTKMSTRNCQGMDSVIKPLDTIPEDKKVRVQRTQSTFDPFEKPANQVKRVHSENNACINFKTSSTGKESPKVRRHASPSSPTSPKFGKADSYEKLEKLGEGSYATVYKGKSKVNGKLVALKVIRLQEEEGTPFTAIREASLLKGLKHANIVLLHDIIHTKETLTLVFEYVHTDLCQYMDKHPGGLHPDNVKLFLFQLLRGLSYIHQRYILHRDLKPQNLLISDTGELKLADFGLARAKSVPSHTYSNEVVTLWYRPPDVLLGSTEYSTCLDMWGVGCIFVEMIQGVAAFPGMKDIQDQLERIFLVLGTPNEDTWPGVHSLPHFKPERFTLYSSKNLRQAWNKLSYVNHAEDLASKLLQCSPKNRLSAQAALSHEYFSDLPPRLWELTDMSSIFTVPNVRLQPEAGESMRAFGKNNSYGKSLSNSKH [S119A], which “effect of a mutation on the interaction” value is on record?
A: Its value is “decreasing interaction”.

Variants of: B3
Conditions: with 1433f_human YWHAH

Q: For MCDLIEPQPAEKIGKMKKLRRTLSESFSRIALKKDDTTFDEICVTKMSTRNCQGMDSVIKPLDTIPEDKKVRVQRTQSTFDPFEKPANQVKRVHSENNACINFKTSSTGKESPKVRRHASPSSPTSPKFGKADSYEKLEKLGEGSYATVYKGKSKVNGKLVALKVIRLQEEEGTPFTAIREASLLKGLKHANIVLLHDIIHTKETLTLVFEYVHTDLCQYMDKHPGGLHPDNVKLFLFQLLRGLSYIHQRYILHRDLKPQNLLISDTGELKLADFGLARAKSVPSHTYSNEVVTLWYRPPDVLLGSTEYSTCLDMWGVGCIFVEMIQGVAAFPGMKDIQDQLERIFLVLGTPNEDTWPGVHSLPHFKPERFTLYSSKNLRQAWNKLSYVNHAEDLASKLLQCSPKNRLSAQAALSHEYFSDLPPRLWELTDMSSIFTVPNVRLQPEAGESMRAFGKNNSYGKSLSNSKH [S119A], which “effect of a mutation on the interaction” value is on record?
A: Its value is “decreasing interaction”.
